Measured values as given in article PMC6193965.

Molecular target: T1, mouse MILL2 extracellular domain (heavy chain) (mouse)
T1 sequence (Q8HWE5 whole entry, looked up): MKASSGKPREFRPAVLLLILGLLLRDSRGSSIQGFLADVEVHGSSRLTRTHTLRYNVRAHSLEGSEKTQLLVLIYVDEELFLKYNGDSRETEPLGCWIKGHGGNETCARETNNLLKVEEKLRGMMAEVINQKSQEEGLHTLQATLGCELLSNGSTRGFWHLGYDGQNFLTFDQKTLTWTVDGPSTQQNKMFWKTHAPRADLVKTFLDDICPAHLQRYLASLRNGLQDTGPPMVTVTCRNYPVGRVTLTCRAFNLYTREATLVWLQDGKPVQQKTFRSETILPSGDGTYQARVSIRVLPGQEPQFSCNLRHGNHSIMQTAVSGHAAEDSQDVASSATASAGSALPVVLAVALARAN
Assay: SEC; MILL2 refolded by rapid dilution with 10 μM refolded β2m; complex purified on Superdex 75 and then by cation exchange (RESOURCE S); stoichiometry of the purified complex (Supplementary Fig. 1c)

- stoichiometry N: 1
Substance: mouse β2-microglobulin (from UniProt P01887 21-119) (natural protein)
